# Article PMC7050210 (Nature, 2020)
# Like-named read-outs stand apart in the source and are kept apart here. Non-standard residues stand in square brackets, D forms with d. No end group written: not given here. pS = N[C@@H](COP(=O)(O)O)C(=O)O
# T1: β-TRCP1 (monomeric form, from residue 175 to C-terminus) (human, UniProt Q9Y297 175-605)
# T1 sequence: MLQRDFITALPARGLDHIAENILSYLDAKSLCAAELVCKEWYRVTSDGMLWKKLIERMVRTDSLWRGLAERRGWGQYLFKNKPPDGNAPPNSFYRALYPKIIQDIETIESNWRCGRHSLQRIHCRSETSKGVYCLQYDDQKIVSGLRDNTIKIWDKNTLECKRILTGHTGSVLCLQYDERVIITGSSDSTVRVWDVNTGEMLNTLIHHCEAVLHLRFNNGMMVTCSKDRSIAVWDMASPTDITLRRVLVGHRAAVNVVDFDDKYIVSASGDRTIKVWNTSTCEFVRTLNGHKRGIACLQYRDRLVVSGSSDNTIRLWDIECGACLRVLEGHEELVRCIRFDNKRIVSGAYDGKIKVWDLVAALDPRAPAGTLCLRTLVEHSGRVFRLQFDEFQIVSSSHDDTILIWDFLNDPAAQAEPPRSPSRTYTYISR
# Key:
# [1] = molecular target: T1, β-TRCP1 (monomeric form, from residue …); assay: cryo-EM structure
# [2] = molecular target: T1, β-TRCP1 (monomeric form, from residue …); assay: cryo-EM structure; remark: listed apart in the source
binding result [1],binding result [2],Binder
binds,,CKKERLLDDRHDSGLDSMKDEE [IκBα-derived substrate peptide with N-terminal Cys (cryo EM peptide)]
,binds,KKERLLDDRHD[pS]GLD[pS]MKDEE [IκBα-derived phosphopeptide KKERLLDDRHD(pS)GLD(pS)MKDEE]
